The values that follow come from article PMC2795169, “The Influence of Recombinant Production on the Immunologic Behavior of Birch Pollen Isoallergens” (PLoS ONE, 2009).

The target of one data set is T1, Bet v 1.0401 (Betula pendula, UniProt P43177).
T1 construct: gene BETV1D; full-length non-fusion protein, no tag, pET28b (Nco I/Eco RI), E. coli BL21 Star (DE3), codon-optimized gene, batch B purified without denaturation
T1 sequence (P43177 2-160): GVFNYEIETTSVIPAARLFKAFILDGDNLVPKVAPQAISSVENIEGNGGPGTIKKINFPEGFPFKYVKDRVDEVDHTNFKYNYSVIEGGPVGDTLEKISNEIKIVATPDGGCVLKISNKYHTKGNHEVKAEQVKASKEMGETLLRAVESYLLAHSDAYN
Description: ANS fluorescence titration, nonlinear regression. It counts as binding.

Data set [1] addresses Recombinant Bet v 1.0401 production batch A (birch) (UniProt P43177). Description: SEC-MALS; online HPSEC-light scattering (refractive index and right-angle light scattering), 0.5 ml/min, 0.1 M sodium phosphate pH 6.5, 150 mM sodium chloride.
In a further data set the target is P43177. As to the kind of experiment: dynamic light scattering; DLS in aqueous solution at a concentration of 1 mg/ml. Conditions: other: dynamic light scattering.

Take `O=S(=O)(O)c1cccc2cccc(Nc3ccccc3)c12` [8-anilino-1-naphtalenesulfonic acid]: binding on Bet v 1.0401 was put at a Kd of 21.2 µM.

B1: Recombinant Bet v 1.0401 production batch A (protein)
chain: MGVFNYEIETTSVIPAARLFKAFILDGDNLVPKVAPQAISSVENIEGNGGPGTIKKINFPEGFPFKYVKDRVDEVDHTNFKYNYSVIEGGPVGDTLEKISNEIKIVATPDGGCVLKISNKYHTKGNHEVKAEQVKASKEMGETLLRAVESYLLAHSDAYN
For the molecule B1, in data set [1], the percent of the protein as multimers of more than 2,000 kDa amounted to 2%, the percent of the protein as small oligomers of 70–80 kDa was 12% and the stoichiometry N worked out at 4. The “percent of the protein as aggregates (RH 16 nm) by DLS” value in the data set with P43177 is given as 34% RH of 16±8 nm.
